In patent publication US20180291096A1 (Janssen / Centocor, published 2018):
Where a chain is given by its changes, count along the chain named.

T1: recombinant human IL-23 (hrIL-23), produced at Centocor (human, UniProt P29460 23-328)
T1 sequence 1: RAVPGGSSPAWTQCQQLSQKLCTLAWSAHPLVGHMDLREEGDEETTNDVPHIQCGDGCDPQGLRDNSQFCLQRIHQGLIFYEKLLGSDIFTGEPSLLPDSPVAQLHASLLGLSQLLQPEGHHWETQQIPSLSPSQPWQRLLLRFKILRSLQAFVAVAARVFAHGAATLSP
T1 sequence 2: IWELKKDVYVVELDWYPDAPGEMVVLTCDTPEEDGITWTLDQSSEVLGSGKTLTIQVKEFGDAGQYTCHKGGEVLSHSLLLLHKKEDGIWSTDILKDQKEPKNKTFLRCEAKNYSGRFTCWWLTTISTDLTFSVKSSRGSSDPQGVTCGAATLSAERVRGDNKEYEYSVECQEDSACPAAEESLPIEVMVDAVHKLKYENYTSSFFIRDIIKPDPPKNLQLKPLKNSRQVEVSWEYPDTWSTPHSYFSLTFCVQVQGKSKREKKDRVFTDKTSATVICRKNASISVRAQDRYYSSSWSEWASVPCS

B1: MOR04649 mAb (antibody, human IgG1, V domains shown)
VH: QVELVQSGAEVKKPGESLKISCKGSGYSFSNYWIGWVRQMPGKGLEWMGIIDPSNSYTNYSPSFQGQVTISADKSISTAYLQWSSLKASDTAMYYCARWYYKPFDVWGQGTLVTVSS
VL: DIVLTQPPSVSGAPGQRVTISCTGSSSNIGSGYDVHWYQQLPGTAPKLLIYGNSKRPSGVPDRFSGSKSGTSASLAITGLQSEDEADYYCSSWTPSSVVFGGGTKLTVL
B2: MOR05043 mAb (antibody, human IgG1, V domains shown)
VH: B1 VH with I50F, D52S, S54D, N55G, Y57H, N59W
VL: B1 VL
B3: MOR05059 mAb (antibody, human IgG1, V domains shown)
VH: B1 VH
VL: DIVLTQPPSVSGAPGQRVTISCTGSSSNIGSGYDVHWYQQLPGTAPKLLIYGNSKRPSGVPDRFSGSKSGTSASLAITGLQSEDEADYYCASWTDGLSLVVFGGGTKLTVL
B4: MOR05058 mAb (antibody, human IgG1, V domains shown)
VH: B1 VH
VL: B3 VL with A91S, G96T, L97P, S98N, L99M, V100I
B5: MOR05044 mAb (antibody, human IgG1, V domains shown)
VH: B1 VH with D52S, N55G, Y57T, N59W
VL: B1 VL
B6: MOR05046 mAb (antibody, human IgG1, V domains shown)
VH: B1 VH with S54V, N55S, Y57W, N59K
VL: B1 VL
B7: MOR05041 mAb (antibody, human IgG1, V domains shown)
VH: B1 VH with D52S, S54T, N55G, Y57V, N59W
VL: B1 VL
B8: MOR05045 mAb (antibody, human IgG1, V domains shown)
VH: B1 VH with D52S, S54T, N55G, Y57A, N59W
VL: B1 VL
B9: MOR05042 mAb (antibody, human IgG1, V domains shown)
VH: B1 VH with D52S, S54T, N55G, Y57S, N59W
VL: B1 VL
B10: MOR05040 mAb (antibody, human IgG1, V domains shown)
VH: QVELVQSGAEVKKPGSSVKVSCKASGGTFSSNYISWVRQAPGQGLEWMGISPGTGINAYYAQKFQGRVTITADESTSTAYMELSSLRSEDTAVYYCARSKKGMYGGWTYPLMMFDLWGQGTLVTVSS
VL: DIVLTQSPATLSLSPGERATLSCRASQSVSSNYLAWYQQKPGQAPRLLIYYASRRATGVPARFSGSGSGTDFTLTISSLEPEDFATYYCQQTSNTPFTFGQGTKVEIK
B11: MOR05029 mAb (antibody, human IgG1, V domains shown)
VH: B10 VH with I50G, S51I, P52I, G53P, T54I, G55F, I56G, N57H, Y59N
VL: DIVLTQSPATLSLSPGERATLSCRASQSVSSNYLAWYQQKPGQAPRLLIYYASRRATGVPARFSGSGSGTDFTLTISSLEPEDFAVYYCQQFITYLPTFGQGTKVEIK
B12: MOR05034 mAb (antibody, human IgG1, V domains shown)
VH: B10 VH with I50L, S51I, P52D, G53P, T54N, G55F, I56G, N57G
VL: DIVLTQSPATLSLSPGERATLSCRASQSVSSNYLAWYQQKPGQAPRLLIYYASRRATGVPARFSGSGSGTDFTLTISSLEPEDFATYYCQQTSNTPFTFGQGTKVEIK
B13: MOR05031 mAb (antibody, human IgG1, V domains shown)
VH: B10 VH with I50G, S51I, P52I, G53P, T54I, G55F, I56G, N57H, Y59N
VL: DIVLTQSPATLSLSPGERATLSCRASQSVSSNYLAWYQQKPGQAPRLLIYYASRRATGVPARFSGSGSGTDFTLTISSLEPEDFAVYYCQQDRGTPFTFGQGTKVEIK
B14: MOR05030 mAb (antibody, human IgG1, V domains shown)
VH: B10 VH with I50G, S51I, P52I, G53P, T54I, G55F, I56G, N57H, Y59N
VL: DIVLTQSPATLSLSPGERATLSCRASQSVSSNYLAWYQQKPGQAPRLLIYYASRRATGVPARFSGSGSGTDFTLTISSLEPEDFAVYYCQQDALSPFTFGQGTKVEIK
B15: MOR05036 mAb (antibody, human IgG1, V domains shown)
VH: B10 VH with I50L, S51I, P52D, G53P, T54V, G55F, I56G, N57G
VL: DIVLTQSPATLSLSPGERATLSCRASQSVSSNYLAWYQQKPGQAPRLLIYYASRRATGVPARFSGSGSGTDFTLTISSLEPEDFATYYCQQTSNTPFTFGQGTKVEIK
B16: MOR05032 mAb (antibody, human IgG1, V domains shown)
VH: B10 VH with I50G, S51I, P52I, G53P, T54I, G55F, I56G, N57H, Y59N
VL: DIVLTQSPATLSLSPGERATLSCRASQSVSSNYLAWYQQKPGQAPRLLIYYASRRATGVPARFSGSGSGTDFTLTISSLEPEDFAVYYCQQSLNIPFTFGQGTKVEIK
B17: MOR05054 mAb (antibody, human IgG1, V domains shown)
VH: QVELVESGGGLVQPGGSLRLSCAASGFTFSSFGMSWVRQAPGKGLEWVSGIEHKYLSYATLYAASVKGRFTISRDNSKNTLYLQMNSLRAEDTAVYYCARYWGTPYLMQFDNWGQGTLVTVSS
VL: DIALTQPASVSGSPGQSITISCTGTSSDVGGYNSVSWYQQHPGKAPKLMIYSVSSRPSGVSNRFSGSKSGNTASLTISGLQAEDEADYYCSSYDTNKPLVVFGGGTKLTVL
B18: MOR05063 mAb (antibody, human IgG1, V domains shown)
VH: QVELVESGGGLVQPGGSLRLSCAASGFTFSSFGMSWVRQAPGKGLEWVSNISSSGSSTYYADSVKGRFTISRDNSKNTLYLQMNSLRAEDTAVYYCARYWGTPYLMQFDNWGQGTLVTVSS
VL: B17 VL with S91G, Y93W, T95P, N96I, K97F, P98S, L99Y, V100E
B19: MOR05047 mAb (antibody, human IgG1, V domains shown)
VH: B17 VH with G50N, S57G, L61S
VL: B17 VL
B20: MOR05055 mAb (antibody, human IgG1, V domains shown)
VH: B17 VH with G50N, S57G, L61V
VL: B17 VL
B21: MOR05039 mAb (antibody, human IgG1, V domains shown)
VH: B17 VH with G50N, S57N, L61Y
VL: B17 VL
B22: MOR05056 mAb (antibody, human IgG1, V domains shown)
VH: B17 VH with G50S, L61Y, S65G
VL: B17 VL
B23: MOR05048 mAb (antibody, human IgG1, V domains shown)
VH: B17 VH with G50N, Y55F, L56M, S57G, A59T, L61Y, S65G
VL: B17 VL
B24: MOR05050 mAb (antibody, human IgG1, V domains shown)
VH: B17 VH with G50S, L56T, S57G, A59T, L61Y, S65P
VL: B17 VL
B25: MOR05062 mAb (antibody, human IgG1, V domains shown)
VH: B18 VH
VL: B17 VL with S91Q, S92T, D94Y, T95F, N96S, K97Y, P98S, L99G, V100P
B26: MOR05052 mAb (antibody, human IgG1, V domains shown)
VH: B17 VH with G50S, A59T, L61F
VL: B17 VL
B27: MOR05051 mAb (antibody, human IgG1, V domains shown)
VH: B17 VH with G50Q, A59T
VL: B17 VL
B28: MOR05053 mAb (antibody, human IgG1, V domains shown)
VH: B17 VH with G50N, L56T, A59T, L61Y
VL: B17 VL
B29: MOR05028 mAb (antibody, human IgG1, V domains shown)
VH: QVELVQSGAEVKKPGSSVKVSCKASGGTFSNYAISWVRQAPGQGLEWMGGIIPVFGFTHYAQKFQGRVTITADESTSTAYMELSSLRSEDTAVYYCARDIYAGMDVWGQGTLVTVSS
VL: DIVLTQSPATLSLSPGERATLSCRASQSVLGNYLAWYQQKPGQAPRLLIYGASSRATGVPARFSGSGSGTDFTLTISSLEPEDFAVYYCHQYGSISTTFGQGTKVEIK
B30: MOR05038 mAb (antibody, human IgG1, V domains shown)
VH: QVELVQSGAEVKKPGSSVKVSCKASGGTFSSNYISWVRQAPGQGLEWMGINAHLGGTWYAQKFQGRVTITADESTSTAYMELSSLRSEDTAVYYCARSKKGMYGGWTYPLMMFDLWGQGTLVTVSS
VL: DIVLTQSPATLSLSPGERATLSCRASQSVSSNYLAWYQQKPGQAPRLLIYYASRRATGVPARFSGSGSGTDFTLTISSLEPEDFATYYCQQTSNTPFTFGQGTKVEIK

Each binder was assayed against T1, recombinant human IL-23 (hrIL-23), … (assay: cell-based or functional assay).

Going from B1 to B2, the “IC50, inhibition of IL-17 production” value falls from 0.276 µg/mL to 0.0144 µg/mL (19-fold).

Compared with B3, B4 is 3.7-fold lower in “IC50, inhibition of IL-17 production” value: 0.0106 µg/mL for the first, 0.00285 µg/mL for the second.

Going from B5 to B6, the “IC50, inhibition of IL-17 production” value rises from 0.0141 µg/mL to 0.0428 µg/mL (3-fold).

Going from B7 to B8, the “IC50, inhibition of IL-17 production” value falls from 0.00301 µg/mL to 0.0014 µg/mL (2.1-fold).

Going from B9 to B10, the “IC50, inhibition of IL-17 production” value rises from 0.00127 µg/mL to 0.00264 µg/mL (2.1-fold).

First: B11
Second: B12
The “IC50, inhibition of IL-17 production” value of the first is 3.8-fold lower: 0.0491 µg/mL for the first, 0.185 µg/mL for the second.

Going from B13 to B14, the “IC50, inhibition of IL-17 production” value falls from 0.215 µg/mL to 0.0646 µg/mL (3.3-fold).

B15 and B16 are within 1.5-fold of each other in “IC50, inhibition of IL-17 production” value: 0.17 µg/mL for the first, 0.172 µg/mL for the second.

Going from B17 to B18, the “IC50, inhibition of IL-17 production” value rises from 0.00323 µg/mL to 0.198 µg/mL (61-fold).

First: B19
Second: B20
The “IC50, inhibition of IL-17 production” value of the first is 3.9-fold lower: 0.0234 µg/mL for the first, 0.0916 µg/mL for the second.

Compared with B21, B22 is 1.8-fold lower in “IC50, inhibition of IL-17 production” value: 0.161 µg/mL for the first, 0.092 µg/mL for the second.

Going from B23 to B24, the “IC50, inhibition of IL-17 production” value rises from 0.0162 µg/mL to 0.0277 µg/mL (1.7-fold).

First: B25
Second: B26
The “IC50, inhibition of IL-17 production” value of the first is 11-fold higher: 0.199 µg/mL for the first, 0.0178 µg/mL for the second.

Compared with B27, B28 is 13-fold lower in “IC50, inhibition of IL-17 production” value: 0.0663 µg/mL for the first, 0.00493 µg/mL for the second.

First: B29
Second: B30
The “IC50, inhibition of IL-17 production” value of the first is 3.7-fold higher: 0.104 µg/mL for the first, 0.0282 µg/mL for the second.
